Measured values as given in article PMC4403255 (Genes & Development, 2015).

B1: AP-APP-E2 (amino acids 287-506), wild type (domain or fragment, UniProt P12023-2 287-506, looked up)
chain: VRVPTTAASTPDAVDKYLETPGDENEHAHFQKAKERLEAKHRERMSQVMREWEEAERQAKNLPKADKKAVIQHFQEKVESLEQEAANERQQLVETHMARVEAMLNDRRRLALENYITALQAVPPRPHHVFNMLKKYVRAEQKDRQHTLKHFEHVRMVDPKKAAQIRSQVMTHLRVIYERMNQSLSLLYNVPAVAEEIQDEVDELLQKEQNYSDDVLANMI

Legend:
[1] = target: Full extracellular domain of mouse amyloid precursor protein (mouse) (UniProt P12023); assay: SEC
DR6-Fc fusion = target: T1, DR6-Fc fusion (UniProt Q9EPU5 42-349); assay: BLI
T1 sequence (looked up): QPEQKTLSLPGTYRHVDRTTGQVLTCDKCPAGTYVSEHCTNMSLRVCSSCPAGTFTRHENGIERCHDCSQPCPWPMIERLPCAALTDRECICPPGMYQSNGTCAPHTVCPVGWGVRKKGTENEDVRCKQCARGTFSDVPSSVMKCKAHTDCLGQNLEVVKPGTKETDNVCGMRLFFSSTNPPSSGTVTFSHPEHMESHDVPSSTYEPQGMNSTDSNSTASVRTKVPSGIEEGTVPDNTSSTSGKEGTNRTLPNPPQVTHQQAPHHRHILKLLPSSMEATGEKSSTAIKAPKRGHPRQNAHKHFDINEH

Molecule | stoichiometry N [1] | Kd (DR6-Fc fusion)
Full extracellular domain of mouse amyloid precursor protein (from UniProt P12023-2 18-596) (domain or fragment) | 2 | –
B1 | – | 85 nM
